Test results from the supplement of paper PMC12042874.
± gives the uncertainty stated by the source.

Test: amyloid nucleation score (Sup35N fusion, yeast selection) (log enrichment); library NNK1; higher = more nucleation; inactive = no reads after selection
In short: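 Libraries of peptides of 20 random codons fused to Sup35N were expressed in psi-negative yeast and induced 24 hours with 100 μM copper sulfate. Selection was 7 days at 30°C on medium lacking adenine and uracil, and plasmid inserts were Illumina-sequenced before and after selection. Nucleation score is the DiMSum log enrichment of output over input reads, centred on the mode score of non-aggregating sequences, and sequences with under 100 input reads were left out.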

Substance	amyloid nucleation score
VLSHVGFKSRMSVTNPGCLD	-0.562 ± 0.81
VLTFPLFCIGKLIKN	6.033 ± 0.045
VLYGGDLALLSFDTGHPLFL	0.297 ± 0.38
VMDVFV	-0.292 ± 0.62
VMGFGTCVRKQCSNYLKGIE	0.476 ± 0.63
VMGNTDVVSDVSWVKCQKLK	0.328 ± 0.32
VMKELLMTHLLSCCLYSLCL	1.28 ± 0.34
VMKLDGDPKQVFPGYSLMEG	-0.092 ± 0.36
VMLSSSGYELHVWRVGGSDG	0.093 ± 0.75
VMRVFILSMFWIVSECNRSY	2.38 ± 0.23
VMYPRATLSQLRLKVTN	-0.116 ± 0.4
VNCGRMSAGCREVGWVDGES	-0.316 ± 0.89
VNDYWNFCYVCWKYQSIILY	3.14 ± 0.18
VNKGFHFLILTTIINVDYGG	4.64 ± 0.07
VNLFVLYPIYLFGSCSHNLM	7.373 ± 0.053
VNPFIFLNRNCAPILGWTCC	3.11 ± 0.11
VNSVCSGGALMPGFKCAQLK	-0.169 ± 0.81
VNVITCLY	-1.33 ± 1.4
VNVLRTII	0.255 ± 0.27
VPDESDHFSFRVEMLSLKVD	-0.639 ± 0.45
VPFLWLRLCRRCYLTMGCSI	-0.491 ± 0.97
VPGLRI	0.584 ± 0.54
VPILIVFQQVADASRIRIMR	4.77 ± 0.059
VPLRTWLITWLGYNSHNWLC	-0.302 ± 0.76
VPVVRYYFTQFMDKYADDMF	1.36 ± 0.58

Substance	amyloid nucleation score
VQFLLYSGFVQTILMPKASR	3.02 ± 0.15
VQVQVGSFELNSGQRRSVLK	-0.516 ± 1.3
VQWLHDMLVHFN	-0.022 ± 1
VRADHYFYITHIKLKMSRV	inactive
VRDKSGPYYSSV	0.705 ± 0.4
VRDYAGPFSFPYRSLRSEWQ	0.193 ± 0.56
VRGPGDGFWLEDGTGSHSYR	-0.078 ± 0.42
VRHMWWVFPIFEISVRKCPV	-0.116 ± 1
VRIILWTMDVIFRLMFTRDQ	0.41 ± 0.51
VRKCRVNYGENGFKYRTRTM	0.739 ± 0.4
VRLRDVILSKVATMSF	-0.363 ± 0.27
VRMIT	0.388 ± 0.64
VRNNNFAYVNSVTDGVRYAR	inactive
VRRGFGPIITLYNFIISIWF	0.895 ± 0.79
VRRQRKVVLPTLMGNASGRP	-0.183 ± 0.43
VRSFGWTEFKCVTFFQEWIS	-0.029 ± 0.44
VRSWVLVLQSMCGLLSGGYG	-0.802 ± 0.96
VRWNWSGPNELYLRLFCRLP	-0.508 ± 0.39
VRYSL	-0.42 ± 0.35
VSDYFG	0.229 ± 0.87
VSFILGSNCWAYKTTPMGFL	0.881 ± 0.39
VSLAAPGCGFGCQRSRGASQ	0.013 ± 1.1
VSLFLYISLSLRIVRRYVRV	0.263 ± 0.27
VSLNASPL	0.902 ± 0.57
VSLRCWCWGGTHVKPQRGYV	0.377 ± 0.77

Substance	amyloid nucleation score
VSPRFGLSSMGNYQKVLVYI	-0.651 ± 1.7
VSRVDCDNFGLRSRVSAL	0.503 ± 0.37
VSRYLWIIGRGWVN	0.412 ± 0.39
VSTILYFDFVSVLPSALIEK	3.23 ± 0.18
VSVFCTSFWASTKLYWTVSE	-0.351 ± 0.6
VSYMQSVVHCGPKARCKWRC	0.964 ± 0.67
VTLSLMCWNFALRFVSLGRS	4.02 ± 0.071
VTLSTAIVTNEFMSDISTGY	-0.712 ± 0.52
VTMRLL	0.968 ± 0.63
VTRCVAVAFSLGYLVIKCAL	-0.243 ± 0.76
VTSDLLD	0.283 ± 0.4
VTSLYQDVT	-2.31 ± 2.4
VTSWDMS	0.016 ± 0.26
VVADVAPR	-0.14 ± 0.34
VVCQVNIHLNGVCLHRCLEE	6.862 ± 0.059
VVCRPTWRWGLKEIYE	-0.133 ± 0.83
VVEKYSCIRESFHEGFG	-1.07 ± 1.7
VVFSWRIDSFGREEKGA	0.349 ± 0.81
VVGFYEWGQSREISSLRGGC	0.382 ± 0.58
VVGVYYSCIYVGAYNLGSIP	4.77 ± 0.1
VVLGCDVMLYRISFPFMIHS	-0.036 ± 0.47
VVLNIR	-0.232 ± 0.52
VVLRSGINL	-0.561 ± 0.29
VVMMWDI	inactive
VVMRPIFYGNSWLVRPLRNM	-0.272 ± 0.45

Substance	amyloid nucleation score
VVSRRVYDYTMDGLWGQ	0.44 ± 0.36
VVSRWLRVFNFFEAKDFILV	-1.74 ± 2.7
VVSYTVQGGRSSHMANWG	0.35 ± 0.92
VVVWVFHFYAC	1.16 ± 0.71
VVYHT	-0.368 ± 0.28
VVYHVFFWELTNAKHNLPML	-1.17 ± 2.4
VWCRNAVDTMLIPMCTTPGY	0.372 ± 0.6
VWIPYCLNFQSCNNHKLSLA	-1.13 ± 1
VWLMFLSWLV	-0.639 ± 0.78
VWLWDLA	1.25 ± 0.62
VWRGRGCNHLYVMEEKLVGV	0.623 ± 0.41
VWVKAMSFFWVIALPHAVYV	inactive
VYAYVSHLLIYVFSGRV	inactive
VYCCLNFLAFNFSWV	6.308 ± 0.063
VYCSLPRFRHLTSSILVTII	-0.07 ± 1.4
VYFGDLLLKTSYL	-0.747 ± 1.1
VYFVTFWSYVNFHV	-0.208 ± 0.28
VYILLRVRVWSFYVVVVSRF	0.484 ± 0.28
VYLGRFTPDGVMNYYNYSYV	-0.763 ± 1.4
VYLSRHTNRG	1.53 ± 0.43
VYLVGASWPADVDEFGGRKD	-0.402 ± 0.54
VYMGFVCEIVVNKEKRVGTF	0.008 ± 0.84
VYRNAINSVIHFDGVVWGVG	inactive
VYRRIYNFECWSSKCMLGYP	-0.129 ± 1.6
VYSGYSCCAWLLIWTSDGTD	8.255 ± 0.048

Substance	amyloid nucleation score
VYTWPTICNCQRL	0.128 ± 0.36
VYWNV	1.1 ± 0.57
VYWTVDIWVFFVTAC	1.49 ± 0.13
VYYIVFPTTLSVDKFFPIWC	2.26 ± 0.18
WAILNDVMYHMWLNTFRTNV	-0.295 ± 0.64
WANRVCMCLRTSFYHL	0.004 ± 0.62
WARESRIHTYVRVMFSGKWG	0.517 ± 0.54
WAVRIVHMRVFFGLPVDW	-0.697 ± 0.58
WAWYLCSPESANFHNLHRLW	0.324 ± 1.1
WAYWRYVNENRSVCRRKVGF	-0.053 ± 0.31
WCFVTHLLLCFLLDDKNFTW	inactive
WCGLARREKCRMPNGHRVHI	-0.497 ± 0.48
WCLSG	-0.498 ± 0.48
WCLWCVQVRFFFNVLFFK	0.95 ± 0.44
WCQKYNFRCSVLDLTFSLLW	6.71 ± 0.069
WCSLGCNYTVLFTLLGMVNT	0.116 ± 0.37
WCVFSLLKCINSLAQHFKGS	inactive
WDHLRGLTCNVFIMIVKSFF	1.4 ± 0.36
WDSLVLGKLYKLIFDQASPV	-1.31 ± 1.3
WDWGMCTCRWRDSAASWGKR	0.432 ± 0.34
WEIAE	0.939 ± 0.19
WENLKVSNYDLYSVLPLYGP	0.381 ± 0.45
WFFAAVWVLEFYEFR	-0.432 ± 0.3
WFGSYWSIVVTTVRVIV	inactive
WFRIKGTGTLTPLKQHYSIN	-0.355 ± 0.56

Substance	amyloid nucleation score
WFRRLVTFSYNGWSYLSD	-0.779 ± 0.73
WFRSGDNLRIM	1.65 ± 0.55
WFRVGVPHN	0.472 ± 1.2
WFRYYYLFNRVRTFRERTNF	0.094 ± 1.4
WFSAASGIMKEFSVG	-0.277 ± 0.36
WFVGGTWQGAMNKGPTFVN	0.078 ± 0.56
WFVKLNFLCLCVNMDWHSTY	0.352 ± 0.28
WGAYTLKVGVDLIP	0.195 ± 0.57
WGSSLRRTYMFYLDFDGWVN	-0.405 ± 1.7
WGSYS	0.118 ± 1.1
WHLSMRLDLPT	0.363 ± 0.65
WHTRDYLKRRL	0.906 ± 0.75
WISETMFSVSAMSPVTSDAF	-0.713 ± 0.4
WIVRPSGCGVTTR	-0.414 ± 0.69
WKMNGPFDFDPRRMISHDLK	-0.158 ± 0.42
WLCTMLYVVVIRGCNVGNLE	-0.393 ± 0.65
WLEGLKYKLAVDGRFNQSWG	-0.086 ± 0.81
WLGRYQLLWLALGWIITRRG	1.51 ± 0.47
WLLNMENYWTVSTAGWSRWN	0.332 ± 0.46
WLNSEAWDYLATLGLSFNYS	0.761 ± 0.75
WLNWSSYRRTISKLVRGFFS	-0.295 ± 1.9
WLVHFDHTPNTSL	-0.069 ± 0.53
WLVTDFVCHLITNTIYTLLL	inactive
WNDRSGDVSLPCS	0.027 ± 0.61
WNLNKYSFILALDGSYYVLN	3.23 ± 0.24

Substance	amyloid nucleation score
WNQTSPRQCAVTMSANVTGN	0.575 ± 0.68
WNRRGA	-0.054 ± 0.35
WNSRTSESC	2.97 ± 0.15
WNSVVHINSVNYCV	6.732 ± 0.059
WNYPYIFVGGPKKIGGGRRG	0.584 ± 0.58
WNYRGIKYF	0.129 ± 0.39
WNYSHEV	inactive
WPTLIINDAFILRRRNMDSE	-0.223 ± 0.32
WPVLFFI	-1.46 ± 1.8
WQKSWR	5.24 ± 0.074
WRESSWLCMWERNVKVDWGR	-0.87 ± 1.7
WRFMRFSSGRFNIGEYI	-0.431 ± 1.4
WRLFIWDRGSLWFEISYYFR	-0.164 ± 0.3
WRRNGNAGMSNQCWVRVKFK	0.775 ± 0.46
WRYKIIRSR	1.5 ± 0.4
WSDHDCIRPNFKYCMIRGRS	0.531 ± 0.3
WSISGELFTVVSDWPFCPIG	inactive
WSKCVCHLPR	-0.897 ± 1.6
WSNPPITCSSVGINHHVSVV	-0.171 ± 0.33
WSPTVAMLDGAVRGVAPATH	-0.7 ± 0.57
WSSYGCAAEMDALVCHGDAF	1.47 ± 0.88
WSVVLDFTVDLVHFGPVGRC	0.242 ± 0.36
